According to publication PMC5021983:

Experiments:
Test in all cases: FRET titration
[1] = system: histone H1 (Drosophila); details: EMSA: 5 nM nucleosome, 130 mM NaCl, 10% glycerol, 10 mM Tris-HCl pH 8, 0.005% Tween 20, 0.5x TE, room temperature 3 min, 5% native PAGE in 0.3x TTE; FRET: 5 nM …
[2] = system: MeCP2 (human); details: EMSA: 5 nM nucleosome, 130 mM NaCl, 10% glycerol, 10 mM Tris-HCl pH 8, 0.005% Tween 20, 0.5x TE, room temperature 3 min, 5% native PAGE in 0.3x TTE; FRET: 5 nM …
[3] = system: Gal4; details: EMSA: 5 nM nucleosome, 130 mM NaCl, 10% glycerol, 10 mM Tris-HCl pH 8, 0.005% Tween 20, 0.5x TE, room temperature 3 min, 5% native PAGE in 0.3x TTE, FRET: 5 nM …

Question: How did the K half [1] turn out when “601 mononucleosome with Gal4 site, 247 bp (FRET construct)” was run?
Answer: Its K half is 12.1 nM.

Question: And the K half [2]?
Answer: Its K half is 20.7 nM.

Question: What about the K half ([3]; no CAP, 5 nM nucleosome, Hill coefficient -3.76 ± 2.16) of the same substance?
Answer: Its K half is 3.06 nM.

Question: And the K half ([3]; nucleosome prebound with 25 nM MeCP2, Hill coefficient -1.47 ± 0.22)?
Answer: Its K half is 12.2 nM.
